Results as given in patent US20100022453A1.

Key:
[1] = target: rat NgR1 (Nogo-66 receptor), full-length, expressed on cells (rat) (UniProt Q99M75); experiment: cell-based or functional assay
[2] = target: mouse NgR1, endogenous in acute hippocampal slices (mouse) (UniProt Q99PI8); experiment: cell-based or functional assay
mouse NgR1, endogenous in acute hippocampal slices (mouse), sequence (Q99PI8 27-447): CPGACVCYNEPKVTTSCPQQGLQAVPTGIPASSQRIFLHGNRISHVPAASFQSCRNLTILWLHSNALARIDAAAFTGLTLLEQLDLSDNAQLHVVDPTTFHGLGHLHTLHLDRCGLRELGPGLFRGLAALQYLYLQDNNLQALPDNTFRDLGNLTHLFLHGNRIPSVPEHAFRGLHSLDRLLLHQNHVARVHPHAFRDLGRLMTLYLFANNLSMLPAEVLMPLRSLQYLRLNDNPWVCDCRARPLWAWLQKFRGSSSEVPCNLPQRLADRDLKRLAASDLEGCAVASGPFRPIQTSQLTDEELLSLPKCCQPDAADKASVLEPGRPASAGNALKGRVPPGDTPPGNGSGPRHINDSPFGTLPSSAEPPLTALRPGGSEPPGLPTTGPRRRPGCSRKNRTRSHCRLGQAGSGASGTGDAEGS

rat NgR1 (Nogo-66 receptor), full-length, expressed on cells (rat), sequence (Q99M75 27-447 limits assumed): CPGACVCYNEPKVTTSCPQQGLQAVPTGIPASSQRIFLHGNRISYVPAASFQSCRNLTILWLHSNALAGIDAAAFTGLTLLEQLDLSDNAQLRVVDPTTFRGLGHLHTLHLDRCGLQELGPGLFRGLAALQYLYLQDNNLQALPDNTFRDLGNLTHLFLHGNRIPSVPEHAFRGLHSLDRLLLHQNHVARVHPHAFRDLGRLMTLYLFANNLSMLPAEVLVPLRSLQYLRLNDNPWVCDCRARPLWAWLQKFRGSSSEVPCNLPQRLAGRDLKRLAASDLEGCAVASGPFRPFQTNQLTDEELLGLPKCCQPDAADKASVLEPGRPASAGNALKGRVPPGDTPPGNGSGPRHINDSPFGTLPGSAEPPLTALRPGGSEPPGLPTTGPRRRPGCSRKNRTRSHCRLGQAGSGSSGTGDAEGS

percentage of cells with processes longer than two cell bodies in diameter, PC12^NgR1 line NgR1-1, 25 ng/ml FGF2 [1]: 5.6%
percentage of cells with processes longer than two cell bodies in diameter, PC12^NgR1 line NgR1-2, 25 ng/ml FGF2 [1]: 7.2%
percentage of cells with processes longer than two cell bodies in diameter, control PC12 cells (very low endogenous NgR1), 25 ng/ml FGF2 [1]: 19.8%
HFS-induced LTP at Schaffer collateral-CA1 synapses, mean fEPSP % of baseline, NgR1 null slices with FGF2 (10 µg/ml) (% of baseline) [2]: 165
HFS-induced LTP at Schaffer collateral-CA1 synapses, mean fEPSP % of baseline, wild-type slices with FGF2 (10 µg/ml) (% of baseline) [2]: 139
Substance: FGF2 (Peprotech), unlabeled (ligand)
